Reference: publication PMC3354962 (Advances in bioscience and biotechnology (Print), 2011)

Key:
proteases = assay: Protease digestion, summary over the panel of proteases; type: in vitro ADME; conditions: of the 9 proteases tested; 1 µU enzyme, 1 hr, 37°C, SDS-PAGE
Trypsin = assay: Protease digestion, SDS-PAGE: trypsin; type: in vitro ADME; conditions: 1 µU trypsin, 1 hr, 37°C, Coomassie, Figure 1

Row | Substance | Number of proteases the material was resistant to (proteases) | Appearance of peptide bands on SDS-PAGE after digestion by trypsin (Trypsin)
1 | Griffithsin [GRFT] | 8 | 
2 | PSC-RANTES |  | reduced intensity or density rather than disappearing
